The source of these data is publication PMC4682845.

The target of the assay is MERS-CoV main protease (M^pro), wild type, authentic N-terminus (MERS-CoV). Kind of assay: AUC.

Sequence of MERS-CoV main protease (M^pro), wild type, authentic N-terminus (enzyme) (K9N638 3248-3553 limits assumed): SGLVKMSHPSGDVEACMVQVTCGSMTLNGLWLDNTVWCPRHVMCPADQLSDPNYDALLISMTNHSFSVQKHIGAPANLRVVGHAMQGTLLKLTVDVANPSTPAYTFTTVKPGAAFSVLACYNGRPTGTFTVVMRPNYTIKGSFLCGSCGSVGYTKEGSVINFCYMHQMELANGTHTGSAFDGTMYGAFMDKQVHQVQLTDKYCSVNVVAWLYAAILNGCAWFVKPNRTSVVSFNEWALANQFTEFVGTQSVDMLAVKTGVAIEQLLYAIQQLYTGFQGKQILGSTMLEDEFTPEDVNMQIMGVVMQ

“MERS-CoV main protease (M^pro), wild type, authentic N-terminus (enzyme)” registered a percent dimer of 70%.
